# Numbered stars: 1 amine (or outer) side, 2 acyl side, 3 side chain; on linkers, the order of the positions; unused ones are H or OH. Bridge positions count the residues as written; N and C are the ends. Side chains are listed from the residue outwards. Ends that are not written are not given here. * marks the point of attachment. C20 diacid = O=C(O)CCCCCCCCCCCCCCCCCCC(=O)*; γGlu = O=C(O)[C@H](CCC(=O)[*:2])N[*:1]; AEEA = NCCOCCOCC(=O)O
# T1: human amylin receptor (human, UniProt P30988 25-474; O60896 24-148, limits assumed)
# T1 construct: whole, on cells; Used as cell membranes prepared from the Amylin 3(a)/CRE-luc BHK cells (Assay V); also called hAmylin-R; hAmylinR
# T1 sequence (looked up) 1: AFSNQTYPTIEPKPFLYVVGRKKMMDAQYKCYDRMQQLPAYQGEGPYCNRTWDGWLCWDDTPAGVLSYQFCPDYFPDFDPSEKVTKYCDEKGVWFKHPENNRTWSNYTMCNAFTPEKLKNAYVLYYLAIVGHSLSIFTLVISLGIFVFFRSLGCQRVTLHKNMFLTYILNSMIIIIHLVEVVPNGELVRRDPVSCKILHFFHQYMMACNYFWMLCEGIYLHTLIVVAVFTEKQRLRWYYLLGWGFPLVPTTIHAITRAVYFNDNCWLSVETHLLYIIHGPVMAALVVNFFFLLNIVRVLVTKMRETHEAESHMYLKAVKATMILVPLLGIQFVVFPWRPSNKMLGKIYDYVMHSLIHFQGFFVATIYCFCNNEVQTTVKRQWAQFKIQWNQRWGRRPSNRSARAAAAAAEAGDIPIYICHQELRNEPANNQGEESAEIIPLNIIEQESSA
# T1 sequence (looked up) 2: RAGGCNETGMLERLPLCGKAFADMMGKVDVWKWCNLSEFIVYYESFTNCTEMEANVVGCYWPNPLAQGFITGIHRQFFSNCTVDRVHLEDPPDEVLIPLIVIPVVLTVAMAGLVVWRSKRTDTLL
# Biological target: T1, human amylin receptor
# Test: SPA competition vs 125I-rat amylin, membranes of amylin 3(a) receptor BHK cells (Assay V)
# Method: The binding assay was performed using scintillation proximity assay (SPA) beads (RPNQ0001) from PerkinElmer and cell membranes from the Amylin 3(a)/CRE-luc cells (as described in Assay (II)) were used. Membranes were prepared in the following way; the cells were rinsed with PBS and incubated with Versene for approximately 5 min before harvesting. The cells were flushed with PBS and the cell-suspension was centrifuged for 5 min at 1000 rpm. Cells were homogenized (ultrathurrax) in a buffer containing 20 mM Na-HEPES and 10 mM EDTA (pH 7.4) and centrifuged at 20.000 rpm for 15 min. The resulting pellet was resuspended, homogenized and centrifuged (20.000 rpm, 15 min) in a buffer containing 20 mM Na-HEPES and 0.1 mM EDTA (pH 7.4, buffer 2). The resulting pellet was resuspended in buffer 2 and protein concentration was measured (BCA protein Assay, Pierce). The homogenate was kept cold during the whole procedure. The membranes were kept at −80° C. until use. The assay was performed in a 384 well Optiplate (PerkinElmer) in a total volume of 40 ul. Membranes were mixed with SPA beads. Final concentration of membranes 35 ng/μL final and SPA beads was 0.05 mg/well. Test-compounds were dissolved in DMSO and further diluted in assay buffer (50 mM Hepes, pH 7.4, 1 mM CaCl2, 5 mM MgCl₂, 0.1% OA and 0.02% Tween20). […] The final mixture was incubated with shaking at 400 rpm for 120 min at 25° C. prior to centrifugation (1500 rpm, 10 min). Samples were analyzed on TopCounter™ (Packard). The IC₅₀ was calculated using (one site binding competition analysis) GraphPad Prism5 as a measure of receptor affinity.
row,Binder,IC50
1,"K([AEEA-γGlu-C20 diacid])CNTATCATQRLANFLRHSSPNFGAIPSSTNVGSETY-NH2 (disulfide 2-7; N-terminus assumed; SMILES CC[C@H](C)[C@H](NC(=O)[C@H](C)NC(=O)CNC(=O)[C@H](Cc1ccccc1)NC(=O)[C@H](CC(N)=O)NC(=O)[C@@H]1CCCN1C(=O)[C@H](CO)NC(=O)[C@H](CO)NC(=O)[C@H](Cc1c[nH]cn1)NC(=O)[C@H](CCCNC(=N)N)NC(=O)[C@H](CC(C)C)NC(=O)[C@H](Cc1ccccc1)NC(=O)[C@H](CC(N)=O)NC(=O)[C@H](C)NC(=O)[C@H](CC(C)C)NC(=O)[C@H](CCCNC(=N)N)NC(=O)[C@H](CCC(N)=O)NC(=O)[C@@H](NC(=O)[C@H](C)NC(=O)[C@@H]1CSSC[C@H](NC(=O)[C@@H](N)CCCCNC(=O)COCCOCCNC(=O)CC[C@H](NC(=O)CCCCCCCCCCCCCCCCCCC(=O)O)C(=O)O)C(=O)N[C@@H](CC(N)=O)C(=O)N[C@@H]([C@@H](C)O)C(=O)N[C@@H](C)C(=O)N[C@@H]([C@@H](C)O)C(=O)N1)[C@@H](C)O)C(=O)N1CCC[C@H]1C(=O)N[C@@H](CO)C(=O)N[C@@H](CO)C(=O)N[C@H](C(=O)N[C@@H](CC(N)=O)C(=O)N[C@H](C(=O)NCC(=O)N[C@@H](CO)C(=O)N[C@@H](CCC(=O)O)C(=O)N[C@H](C(=O)N[C@@H](Cc1ccc(O)cc1)C(N)=O)[C@@H](C)O)C(C)C)[C@@H](C)O, also called compound 26)",0.532 nM
2,"K([AEEA-γGlu-C20 diacid])CNTATCATQRLANFLRHSSPNFGAIPSSTNVGSRTY-NH2 (disulfide 2-7; N-terminus assumed; SMILES CC[C@H](C)[C@H](NC(=O)[C@H](C)NC(=O)CNC(=O)[C@H](Cc1ccccc1)NC(=O)[C@H](CC(N)=O)NC(=O)[C@@H]1CCCN1C(=O)[C@H](CO)NC(=O)[C@H](CO)NC(=O)[C@H](Cc1c[nH]cn1)NC(=O)[C@H](CCCNC(=N)N)NC(=O)[C@H](CC(C)C)NC(=O)[C@H](Cc1ccccc1)NC(=O)[C@H](CC(N)=O)NC(=O)[C@H](C)NC(=O)[C@H](CC(C)C)NC(=O)[C@H](CCCNC(=N)N)NC(=O)[C@H](CCC(N)=O)NC(=O)[C@@H](NC(=O)[C@H](C)NC(=O)[C@@H]1CSSC[C@H](NC(=O)[C@@H](N)CCCCNC(=O)COCCOCCNC(=O)CC[C@H](NC(=O)CCCCCCCCCCCCCCCCCCC(=O)O)C(=O)O)C(=O)N[C@@H](CC(N)=O)C(=O)N[C@@H]([C@@H](C)O)C(=O)N[C@@H](C)C(=O)N[C@@H]([C@@H](C)O)C(=O)N1)[C@@H](C)O)C(=O)N1CCC[C@H]1C(=O)N[C@@H](CO)C(=O)N[C@@H](CO)C(=O)N[C@H](C(=O)N[C@@H](CC(N)=O)C(=O)N[C@H](C(=O)NCC(=O)N[C@@H](CO)C(=O)N[C@@H](CCCNC(=N)N)C(=O)N[C@H](C(=O)N[C@@H](Cc1ccc(O)cc1)C(N)=O)[C@@H](C)O)C(C)C)[C@@H](C)O, also called compound 38)",0.249 nM

# The remaining binders from weak to strong by IC50, led by results:
row,IC50,Binder
1,0.97 nM,"K([γGlu-C20 diacid])CNTATCATQRLANFLRHSSPNFGAIPSSTNVGSKTY-NH2 (disulfide 2-7; N-terminus assumed; SMILES CC[C@H](C)[C@H](NC(=O)[C@H](C)NC(=O)CNC(=O)[C@H](Cc1ccccc1)NC(=O)[C@H](CC(N)=O)NC(=O)[C@@H]1CCCN1C(=O)[C@H](CO)NC(=O)[C@H](CO)NC(=O)[C@H](Cc1c[nH]cn1)NC(=O)[C@H](CCCNC(=N)N)NC(=O)[C@H](CC(C)C)NC(=O)[C@H](Cc1ccccc1)NC(=O)[C@H](CC(N)=O)NC(=O)[C@H](C)NC(=O)[C@H](CC(C)C)NC(=O)[C@H](CCCNC(=N)N)NC(=O)[C@H](CCC(N)=O)NC(=O)[C@@H](NC(=O)[C@H](C)NC(=O)[C@@H]1CSSC[C@H](NC(=O)[C@@H](N)CCCCNC(=O)CC[C@H](NC(=O)CCCCCCCCCCCCCCCCCCC(=O)O)C(=O)O)C(=O)N[C@@H](CC(N)=O)C(=O)N[C@@H]([C@@H](C)O)C(=O)N[C@@H](C)C(=O)N[C@@H]([C@@H](C)O)C(=O)N1)[C@@H](C)O)C(=O)N1CCC[C@H]1C(=O)N[C@@H](CO)C(=O)N[C@@H](CO)C(=O)N[C@H](C(=O)N[C@@H](CC(N)=O)C(=O)N[C@H](C(=O)NCC(=O)N[C@@H](CO)C(=O)N[C@@H](CCCCN)C(=O)N[C@H](C(=O)N[C@@H](Cc1ccc(O)cc1)C(N)=O)[C@@H](C)O)C(C)C)[C@@H](C)O, also called compound 35) [N^ε1-[(4S)-4-carboxy-4-(19-carboxynonadecanoylamino)butanoyl]-[Arg17,Pro21,Pro27,Lys35]-h-amylin]"
2,0.837 nM,"K([γGlu-C20 diacid])CNTATCATQRLANFLRHSSPNFGAIPSSTNVGSETY-NH2 (disulfide 2-7; N-terminus assumed; SMILES CC[C@H](C)[C@H](NC(=O)[C@H](C)NC(=O)CNC(=O)[C@H](Cc1ccccc1)NC(=O)[C@H](CC(N)=O)NC(=O)[C@@H]1CCCN1C(=O)[C@H](CO)NC(=O)[C@H](CO)NC(=O)[C@H](Cc1c[nH]cn1)NC(=O)[C@H](CCCNC(=N)N)NC(=O)[C@H](CC(C)C)NC(=O)[C@H](Cc1ccccc1)NC(=O)[C@H](CC(N)=O)NC(=O)[C@H](C)NC(=O)[C@H](CC(C)C)NC(=O)[C@H](CCCNC(=N)N)NC(=O)[C@H](CCC(N)=O)NC(=O)[C@@H](NC(=O)[C@H](C)NC(=O)[C@@H]1CSSC[C@H](NC(=O)[C@@H](N)CCCCNC(=O)CC[C@H](NC(=O)CCCCCCCCCCCCCCCCCCC(=O)O)C(=O)O)C(=O)N[C@@H](CC(N)=O)C(=O)N[C@@H]([C@@H](C)O)C(=O)N[C@@H](C)C(=O)N[C@@H]([C@@H](C)O)C(=O)N1)[C@@H](C)O)C(=O)N1CCC[C@H]1C(=O)N[C@@H](CO)C(=O)N[C@@H](CO)C(=O)N[C@H](C(=O)N[C@@H](CC(N)=O)C(=O)N[C@H](C(=O)NCC(=O)N[C@@H](CO)C(=O)N[C@@H](CCC(=O)O)C(=O)N[C@H](C(=O)N[C@@H](Cc1ccc(O)cc1)C(N)=O)[C@@H](C)O)C(C)C)[C@@H](C)O, also called compound 27) [N^ε1-[(4S)-4-carboxy-4-(19-carboxynonadecanoylamino)butanoyl]-[Arg17,Pro21,Pro27,Glu35]-h-amylin]"
3,0.768 nM,"K([AEEA-AEEA-γGlu-C20 diacid])CNTATCATQRLANFLRHSSPNFGAIPSSTNVGSETY-NH2 (disulfide 2-7; N-terminus assumed; SMILES CC[C@H](C)[C@H](NC(=O)[C@H](C)NC(=O)CNC(=O)[C@H](Cc1ccccc1)NC(=O)[C@H](CC(N)=O)NC(=O)[C@@H]1CCCN1C(=O)[C@H](CO)NC(=O)[C@H](CO)NC(=O)[C@H](Cc1c[nH]cn1)NC(=O)[C@H](CCCNC(=N)N)NC(=O)[C@H](CC(C)C)NC(=O)[C@H](Cc1ccccc1)NC(=O)[C@H](CC(N)=O)NC(=O)[C@H](C)NC(=O)[C@H](CC(C)C)NC(=O)[C@H](CCCNC(=N)N)NC(=O)[C@H](CCC(N)=O)NC(=O)[C@@H](NC(=O)[C@H](C)NC(=O)[C@@H]1CSSC[C@H](NC(=O)[C@@H](N)CCCCNC(=O)COCCOCCNC(=O)COCCOCCNC(=O)CC[C@H](NC(=O)CCCCCCCCCCCCCCCCCCC(=O)O)C(=O)O)C(=O)N[C@@H](CC(N)=O)C(=O)N[C@@H]([C@@H](C)O)C(=O)N[C@@H](C)C(=O)N[C@@H]([C@@H](C)O)C(=O)N1)[C@@H](C)O)C(=O)N1CCC[C@H]1C(=O)N[C@@H](CO)C(=O)N[C@@H](CO)C(=O)N[C@H](C(=O)N[C@@H](CC(N)=O)C(=O)N[C@H](C(=O)NCC(=O)N[C@@H](CO)C(=O)N[C@@H](CCC(=O)O)C(=O)N[C@H](C(=O)N[C@@H](Cc1ccc(O)cc1)C(N)=O)[C@@H](C)O)C(C)C)[C@@H](C)O, also called compound 25)"

# Reference: US20140087995A1 (published 2014)
